Laboratory results: the RNAGym collection of RNA variant scans (doi:10.1093/molbev/msab373)

B1: Azoarcus group I ribozyme (parent)
chain: GUGCCUUGCGCCGGGAAACCACGCAAGGGAUGGUGUCAAAUUCGGCGAAACCUAAGCGCCCGCCCGGGCGUAUGGCAACGCCGAGCCAAGCUUCGGCGCCUGCGCCGAUGAAGGUGUAGAGACUAGACGGCACCCACCUAAGGCAAACGCUAUGGUGAAGGCAUAGUCCAGGGAGUGGCGAAAGUCACACAAACCGG

Variants of: B1
Experiment: reverse-splicing fitness (ratio to wild type); higher = more active; in vitro selection; Mg2+ level not given
Procedure, shortened: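 An in vitro group I ribozyme library with randomized positions was T7-transcribed and gel-purified. In triplicate, 10 pmol RNA in EPPS pH 7.5 was reacted with 50 pmoles of a 30-nt RNA substrate for 1 h at 37 °C across several added MgCl2 levels (1–48 mM), then stopped with EDTA. Products were reverse transcribed from a substrate-complementary primer, PCR-amplified and sequenced (HiSeq 4000). Fitness is a variant's read proportion after selection over that before, normalised to wild type.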
Work on C82G A111C A120G A145C C150U U176A yielded a reverse-splicing fitness of 0.0103. For C82G A111C A120G A145C C150A C169G U176C, the reverse-splicing fitness was 0.0158. For C82G A111C A120G A145C C150A C169G U176A, the reverse-splicing fitness was 0.0248. With C82G A111C A120G A145C C150A C169G U176G the reverse-splicing fitness was 0.00529. C82G A111C A120G A145C C169U U176G gave a reverse-splicing fitness of 0.00406. In the case of C82G A111C A120G A145C C169U U176A, the reverse-splicing fitness is reported as 0.0164. For C82G A111C A120G A145C C169U U176C, the reverse-splicing fitness was 0.0154. In the case of C82G A111C A120G A145U C150A C169U U176C, the reverse-splicing fitness is reported as 0.0124. Variant C82G A111C A120G A145U C150A C169U U176G has a reverse-splicing fitness of 0.00547. For C82G A111C A120G A145U C150A C169U U176A, the reverse-splicing fitness was 0.0169. C82G A111C A120C C150U C169A U176G gave a reverse-splicing fitness of 0.00909. For C82G A111C A120C C150U C169A U176C, the reverse-splicing fitness was 0.0129. Work on C82G A111C A120C C150U C169A U176A yielded a reverse-splicing fitness of 0.0126. C82G A111C A120C C150G C169U gave a reverse-splicing fitness of 0.00996. C82G A111C A120C C150G C169G gave a reverse-splicing fitness of 0.00702. C82G A111C A120C C150G C169A showed a reverse-splicing fitness of 0.00742. For C82G A111C A120G A145U U176A, the reverse-splicing fitness was 0.016. Variant C82G A111C A120G A145U U176C has a reverse-splicing fitness of 0.0232. In the case of C82G A111C A120G A145U U176G, the reverse-splicing fitness is reported as 0.00575. Work on C82G A111C A120G A145G C150G C169G U176A yielded a reverse-splicing fitness of 0.0101. C82G A111C A120G A145G C150G C169G U176G gave a reverse-splicing fitness of 0.00591. Work on C82G A111C A120G A145G C150G C169G U176C yielded a reverse-splicing fitness of 0.0123. Variant C82G A111C A120G A145C C150G C169G U176A has a reverse-splicing fitness of 0.00837. With C82G A111C A120G A145C C150G C169G U176C the reverse-splicing fitness was 0.00726. Work on C82G A111C A120G A145C C150G C169G U176G yielded a reverse-splicing fitness of 0.00499. C82G A111C A120G A145G C169A U176C gave a reverse-splicing fitness of 0.0271. With C82G A111C A120G A145G C169A U176A the reverse-splicing fitness was 0.0209. C82G A111C A120G A145G C169A U176G showed a reverse-splicing fitness of 0.00447. With C82G A111C A120G C150A C169G U176C the reverse-splicing fitness was 0.025. Variant C82G A111C A120G C150A C169G U176A has a reverse-splicing fitness of 0.0195. With C82G A111C A120G C150A C169G U176G the reverse-splicing fitness was 0.00569. For C82G A111C A120G C169A U176A, the reverse-splicing fitness was 0.016. Work on C82G A111C A120G C169A U176G yielded a reverse-splicing fitness of 0.00442. In the case of C82G A111C A120G C169A U176C, the reverse-splicing fitness is reported as 0.0206. With C82G A111C A120G A145C C150G U176C the reverse-splicing fitness was 0.0129. In the case of C82G A111C A120G A145C C150G U176G, the reverse-splicing fitness is reported as 0.00269. C82G A111C A120G A145C C150G U176A gave a reverse-splicing fitness of 0.00787. With C82G A111C A120G A145C C150A C169A the reverse-splicing fitness was 0.00918. C82G A111C A120G A145C C150A C169G showed a reverse-splicing fitness of 0.00794. Work on C82G A111C A120G A145C C150A C169U yielded a reverse-splicing fitness of 0.00679. Variant C82G A111C A120C C150A U176G has a reverse-splicing fitness of 0.00842. For C82G A111C A120C C150A U176C, the reverse-splicing fitness was 0.0203. For C82G A111C A120C C150A U176A, the reverse-splicing fitness was 0.0125. In the case of C82G A111C A120G A145U C150G C169G U176A, the reverse-splicing fitness is reported as 0.0071. C82G A111C A120G A145U C150G C169G U176C showed a reverse-splicing fitness of 0.00521. For C82G A111C A120G A145U C150G C169G U176G, the reverse-splicing fitness was 0.00512. C82G A111C A120G A145G C150A C169U gave a reverse-splicing fitness of 0.00904. For C82G A111C A120G A145G C150A C169G, the reverse-splicing fitness was 0.00949. For C82G A111C A120G A145G C150A C169A, the reverse-splicing fitness was 0.0104. Work on C82G A111C A120G A145U C150A U176G yielded a reverse-splicing fitness of 0.00582. Work on C82G A111C A120G A145U C150A U176A yielded a reverse-splicing fitness of 0.0121. For C82G A111C A120G A145U C150A U176C, the reverse-splicing fitness was 0.0172. Variant C82G A111C A120G A145G C150U C169G U176C has a reverse-splicing fitness of 0.0175. In the case of C82G A111C A120G A145G C150U C169G U176G, the reverse-splicing fitness is reported as 0.00501. For C82G A111C A120G A145G C150U C169G U176A, the reverse-splicing fitness was 0.0133. With C82G A111C A120G C150G C169G the reverse-splicing fitness was 0.00781. C82G A111C A120G C150G C169A gave a reverse-splicing fitness of 0.00888. For C82G A111C A120G C150G C169U, the reverse-splicing fitness was 0.00835. Work on C82G A111C A120C C150A C169A yielded a reverse-splicing fitness of 0.0108. Variant C82G A111C A120C C150A C169U has a reverse-splicing fitness of 0.0123. Work on C82G A111C A120C C150A C169G yielded a reverse-splicing fitness of 0.00905. Variant C82G A111C A120G C169U U176C has a reverse-splicing fitness of 0.0141. In the case of C82G A111C A120G C169U U176A, the reverse-splicing fitness is reported as 0.0181. With C82G A111C A120G C169U U176G the reverse-splicing fitness was 0.00516. Work on C82G A111C A120G A145C C150U C169A U176C yielded a reverse-splicing fitness of 0.00666. C82G A111C A120G A145C C150U C169A U176A showed a reverse-splicing fitness of 0.0113. In the case of C82G A111C A120G A145C C150U C169A U176G, the reverse-splicing fitness is reported as 0.00557. In the case of C82G A111C A120G A145G C150A, the reverse-splicing fitness is reported as 0.00945. Variant C82G A111C A120G A145G C150U has a reverse-splicing fitness of 0.0132. Work on C82G A111C A120G A145G C150G yielded a reverse-splicing fitness of 0.00751. C82G A111C A120G A145U C150U C169U showed a reverse-splicing fitness of 0.00896. Work on C82G A111C A120G A145U C150U C169A yielded a reverse-splicing fitness of 0.0101. Work on C82G A111C A120G A145U C150U C169G yielded a reverse-splicing fitness of 0.0113. In the case of C82G A111C A120G C150U U176C, the reverse-splicing fitness is reported as 0.0217. C82G A111C A120G C150U U176A gave a reverse-splicing fitness of 0.0119. Work on C82G A111C A120G C150U U176G yielded a reverse-splicing fitness of 0.00715. Work on C82G A111C A120C C150U C169G yielded a reverse-splicing fitness of 0.00825. In the case of C82G A111C A120C C150U C169A, the reverse-splicing fitness is reported as 0.0099. For C82G A111C A120C C150U C169U, the reverse-splicing fitness was 0.0139. For C82G A111C A120G A145G C150U C169A U176A, the reverse-splicing fitness was 0.0152. C82G A111C A120G A145G C150U C169A U176C showed a reverse-splicing fitness of 0.0147. In the case of C82G A111C A120G A145G C150U C169A U176G, the reverse-splicing fitness is reported as 0.00695. Work on C82G A111C A120G A145G C150G C169A U176G yielded a reverse-splicing fitness of 0.00843.
